Test in all cases: purified protein
What all share (assay type): biochemical, Campylobacter jejuni
What all share (settings): 100 mM HEPES pH 7.5, 200 mM KCl, 1.8 mM DTNB, 25 °C

Substrate in series [1]: CCCCCCCCCCCC(=O)SCCNC(=O)CCNC(=O)[C@H](O)C(C)(C)COP(=O)(O)OP(=O)(O)OC[C@H]1O[C@@H](n2cnc3c(N)ncnc32)[C@H](O)[C@@H]1OP(=O)(O)O
Substrate in series [2]: CCCC(=O)SCCNC(=O)CCNC(=O)[C@H](O)C(C)(C)COP(=O)(O)OP(=O)(O)OC[C@H]1O[C@@H](n2cnc3c(N)ncnc32)[C@H](O)[C@@H]1OP(=O)(O)O
Substrate in series [3]: CCCCCCCCCCCCCCCC(=O)SCCNC(=O)CCNC(=O)[C@H](O)C(C)(C)COP(=O)(O)OP(=O)(O)OC[C@H]1O[C@@H](n2cnc3c(N)ncnc32)[C@H](O)[C@@H]1OP(=O)(O)O
Substrate in series [4]: CCCCCC(=O)SCCNC(=O)CCNC(=O)[C@H](O)C(C)(C)COP(=O)(O)OP(=O)(O)OC[C@H]1O[C@@H](n2cnc3c(N)ncnc32)[C@H](O)[C@@H]1OP(=O)(O)O

The record followed here is PMC2683891.

One may read the Km as the substrate concentration at which the rate is half of its maximum. A word on the Vmax: it is the rate approached at saturating substrate. As a reminder, the kcat is the number of substrate molecules converted per active site and unit of time at saturation. The term kcat/Km denotes the second-order rate constant that governs catalysis at low substrate concentration.

B1: Cj0915 (Campylobacter jejuni subsp. jejuni NCTC 11168 = ATCC 700819) (protein)
chain: MRDMGEPKLKIVAMPSDTNPAGNIFGGWILSQIDLAGAIAARELSPERVVTISMDKVVFKEPVFIGDIISCYSKVVNVGNTSISVEVEVTAQRVDSQGCTSCINVTSALVTYVSVTRDGKKNPISEELKRIHGFLNA
On to B1, for which, in series [1], the Michaelis-Menten constant (Km) amounted to 13.9 ± 1.4 µM, the maximum rate (Vmax) came to 63.3 µmol/min/mg, the turnover number (kcat) amounted to 15.6 ± 0.7 s⁻¹ and the kcat/Km was determined as 1.1e+06 M⁻¹ s⁻¹. In series [2], the Km came to 40.8 ± 10.3 µM, the maximum rate (Vmax) was 55 µmol/min/mg, the turnover number (kcat) was determined as 13.6 ± 1.3 s⁻¹ and the specificity constant (kcat/Km) came to 330000 M⁻¹ s⁻¹. Also, in series [3], the Km was determined as 10.6 ± 0.6 µM, the Vmax was determined as 38.9 µmol/min/mg, the kcat was 9.6 ± 0.3 s⁻¹ and the kcat/Km came to 910000 M⁻¹ s⁻¹. In series [4], the Km is 39.3 ± 15.2 µM, the Vmax was 54.3 µmol/min/mg, the kcat came to 13.4 ± 2 s⁻¹ and the kcat/Km was found to be 340000 M⁻¹ s⁻¹.
